Laboratory results as given in the nanobody polyreactivity screen of Harvey et al. (2022).

Test: yeast display, Sf9 membrane polyspecificity reagent, FACS + sequencing; frameworks hold sequencing errors
Method in brief: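 Galactose-induced (36–48 hours) yeast carrying a synthetic nanobody display library were exposed to 10% biotinylated, detergent-solubilized Sf9 membrane reagent at 4 °C for 1 hour. FACS followed streptavidin microbead enrichment, using low and high (top ~1%) gates for expression (anti-HA) and reagent binding (streptavidin). Colony PCR, MiSeq 2 × 250 sequencing and CDR-length filtering followed. Labels for polyreactivity reflect the gate of origin.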

| Sequence | polyreactivity (PSR sort gate) |
| --- | --- |
| QVQLVESGGGLVQAGGSLRLSCAASGYIYYQYAMGWSRQAPGKERELVAGINWRGGSTYADSVKGRFTISRDNAKNTVYLQMNSLKPEDTEVYYCNAKQYRQDVFRRPSYYAYYYWGQGTQVTVSS | high polyreactivity |
| QVQLVESGGGLVQAGGSLRLSCAASGYIYYYNGMGWYRQAPGKERELVADISRRGGSTYYADSVKGRFTISRDNAKNTESLQMNSLKPEDTAVYYCNARARSAFSYDSWGQGTQVTVSS | high polyreactivity |
| QVQLVESGGGLVQAGGSLRLSCAASGYNFHDYAMGWYRQAPGKERELFAAISKRGGSTYYADSVKGRFTISRDNAKNTVYLQMNSLKPEDTAVYYCAKGGPHRGTGLNDYWGQCTQVTVSS | high polyreactivity |
| QVQLVESGGGLVQAGGSLRLSCAASGYNFLRNAMGWYRQAPGKERELVAAISYSGGGTYYADSVKGRFTISRDNAKNTVYLQMNSLKPEDTAVYYCNVAQRYYGNFWSESIEYDYWGLGTQVTVSS | low polyreactivity |
| QVQLVESGGGLVQAGGSLRLSCAASGYNFRHYVMGWYRQAPGKERELVAAITYSGGSTYYADSVKGRFTISRDNAKNTVYLQMNSLKPEDTAVYYCAARRRRSDPYDFWGQGTQVTVSS | high polyreactivity |
| QVQLVESGGGLVQAGGSLRLSCAASGYNFVKNAMGWYRQAPGKERELVAAISTRGGRTYYADSVKGRFTISRDNAKNTVYLQMNSLKPEDTAVYYCAAVHQTSYYDANSYGYWGQGTQVTVSS | high polyreactivity |
| QVQLVESGGGLVQAGGSLRLSCAASGYNFYRYAMGWYRQAPGKEMELVATIRSGGSTNYADSVKGRFTISRDNAKNTVYLQMNSLKPEDTAVYYCAKVRGWYDPYTYGYSEYGYWGQGTQVTVSS | low polyreactivity |
| QVQLVESGGGLVQAGGSLRLSCAASGYSFKSYVMGWYSQAPGKERELVAAITWSGGSTYYADSVKGRFTLSRDNAKNTVFLQMHSLKPEDTAVYYCAAYPRRYRTTYDYWGQGTQVTVSS | high polyreactivity |
| QVQLVESGGGLVQAGGSLRLSCAASGYTCGPYAMGWYRQAPGKERELVAAITTRGGSTYYADSVKGRFTISRDNAKNTVYLQMNSLKPEDTAVYYCAAVVNSKSIQRVVRYYYWGQGTQVTVSS | high polyreactivity |
| QVQLVESGGGLVQAGGSLRLSCAASGYTFAFYAMGWYRQAPGKERELVAAISAGGGRTYYADSVKGRFTISRDNAKNTVYLQMNSLKPEDTAVYYCATDLIQGAAPFRYDYWGQGTQVTVSS | low polyreactivity |
| QVQLVESGGGLVQAGGSLRLSCAASGYTFAGNAMGWYRQAPGKERELVAAISRSGGRTYYAVSVKGRFTISRDNAKNTVYLQMNSLKPEDTAVYYCAAYFPRTLFEFGYWGQGTQVTVSS | high polyreactivity |
| QVQLVESGGGLVQAGGSLRLSCAASGYTFAGNAMGWYRQATGKERELVAAISRSGGRTYYADSVKGRFTISRDNAKNTVYLQMNSLKPEDTAVYYCAAYFPRTLFEFGYWGQGTQVTVSS | high polyreactivity |
| QVQLVESGGGLVQAGGSLRLSCAASGYTFDAYAMGWYRQAPGKERELVAAITTNGGSTYYADSVKGRFTISRDNAKNTVYLQMNSLKPEDTAVYYCNAEYWYEGRYPYDYWGQGTQVTVSS | low polyreactivity |
| QVQLVESGGGLVQAGGSLRLSCAASGYTFDRYAMGWYRQAPGKERELVAVISRSGATTYYADSVKGRFTISRDNAKNTVYLQMNSLKPEDTAVYYCAARNPSGKGRYDYWGQGTQVTVSS | high polyreactivity |
| QVQLVESGGGLVQAGGSLRLSCAASGYTFDTKAMGWYRLAPGKERELVAAISRIGGRTYADSVKGRFTISRDNAKNTVYLQMNSLKPEDTAVYYGAADTTWYPYGYDSWGQGTPVTVSS | low polyreactivity |
| QVQLVESGGGLVQAGGSLRLSCAASGYTFESYTMGWYRQAPGKEREFVAVISSSDTSTSYADSVKGRFTISRDNAKNTVYLQMNSLKPEDTAVYYCAAYSSPYYITYYWYNYDYWGQGTQVTVSS | low polyreactivity |

| Sequence | polyreactivity (PSR sort gate) |
| --- | --- |
| QVQLVESGGGLVQAGGSLRLSCAASGYTFEVYAMGWYRQAPGKERELVADITTRTGNTYYADSVKGRFTISRDNAKNTVYLQMNSLKPEDTAVYYCAADLQRYWWWYEYWGQGTQVTVSS | high polyreactivity |
| QVQLVESGGGLVQAGGSLRLSCAASGYTFEYYAMGWYRQAPGKERELVAAISWSGGDTYYADSVKGRFTISRDNAKNTVYLQMNSLKPEDTAVYYCNADLYNYFYYANWYGAYDYWGQGTQVTVSS | low polyreactivity |
| QVQLVESGGGLVQAGGSLRLSCAASGYTFFYMGSYRQAPGKEREFVAVITYSGGSTYYADSVKGRFTISRDNAKNTVYLQLNSLKPEDTAVYYCAAAVWHYGRPGYLDSGYDYWGQGTQVTVSS | low polyreactivity |
| QVQLVESGGGLVQAGGSLRLSCAASGYTFGAYAMGWYRQAPGKERELVAAIPVRAGRTYYADSVKGRFTISRDNAKNTVYLQMNSLKPEDTAVYYCARRNPLGGNEHDYWGQGTQVTVSS | low polyreactivity |
| QVQLVESGGGLVQAGGSLRLSCAASGYTFGDYAMGWYRQAPGKERELVASITQTGGSTYADSVKGRFTISRDNAKNTVYLQMNSLKPEDTAVYYCNARYPWWESLRQTDRGKGFDYWGQGTQVTVSS | low polyreactivity |
| QVQLVESGGGLVQAGGSLRLSCAASGYTFGVYVMGWYRQAPGKERELVAAISGSTYYADSVKGRFTISRDNAKNTVYLQMNSLKPEDTAVYYCNADYYRSVLIIGVYEYDYWGQGTHVTVSS | low polyreactivity |
| QVQLVESGGGLVQAGGSLRLSCAASGYTFGYYAMGWYRQAPGKERELVAAISYSGGTTYYADSVKGRFTISRDNAKNTVYLQMNSLKPEDTAVYYCNKRYWVRTGKVSSYDYWGQGTQVTVSS | high polyreactivity |
| QVQLVESGGGLVQAGGSLRLSCAASGYTFHGYAMGWYRQAPGKERELVAVITQRGGSTSYADSVKGRFTISRDNAKNTVYLQMNSLKPEDTAVYYCEYYYWGQGTQVTVSS | low polyreactivity |
| QVQLVESGGGLVQAGGSLRLSCAASGYTFHGYAMGWYRQAPGKERELVAVITQRGGSTYYADSVKGRFTISRDNAKNTVYLQMNSLKPEDTAVYYCAARYAGPSPTDTGHDYWGQGTQVTVSS | low polyreactivity |
| QVQLVESGGGLVQAGGSLRLSCAASGYTFHGYAMGWYRQAPGKESELVAVITQRGGSTSYADSVKGRFTISRDNAKITVYLQMNSLKPEDTAVYYCNASAWLVVARTRYGYWGQGTQVTVSS | low polyreactivity |
| QVQLVESGGGLVQAGGSLRLSCAASGYTFHGYSMGWYRKAPGKERELVAVITQRGGSTSYADSVKGRFTISRDNAKNTVYLQMNSLKPEDTAVYYCNASAWLVVARTRYGYWGQGTQVTVSS | low polyreactivity |
| QVQLVESGGGLVQAGGSLRLSCAASGYTFHHNTMGWYRQAPGKERELVATISDGGSTNYADSVKGRFTISRDNAKNTVYLQMNSLKPEDTAVYYCAALYQQFQSALVPYFDVIEEDYWGQGTQVTVSS | low polyreactivity |
| QVQLVESGGGLVQAGGSLRLSCAASGYTFIGYAMGWYRQAPGKERELVAAISWSVGRTYYADSVKGRFTISRDNAKNTVYLQMNSLKPEDTAVYYCNAVSSFYYCYDYWGQVTQVTVSS | low polyreactivity |
| QVQLVESGGGLVQAGGSLRLSCAASGYTFINYAMGWYRQAPGKERELVAAITSTGSRTYYADSVKGRFTITRDNAKNTVYLQMNSLKPEDPAVYYCAAQVDRKYRWFNSWGQGTQVNVSS | high polyreactivity |
| QVQLVESGGGLVQAGGSLRLSCAASGYTFKAYAMGWYRQAPGKERELVAGISRSGGSTYYADSVKGRFTISRDNAKNTVYLQMNSLKPEDTAVYYCAADSFSWETVVPSVFEFDYWGQGTQVTVSS | low polyreactivity |
